In assay [1] the target is 2F5 antibody. Kind of assay: ELISA on coated 2F5; Fc variant 10 ug/ml.
The target in assay [2] is 2F5 antibody. In words: ELISA on coated 2F5; Fc variant 0.00457247 ug/ml. A general note: ELISA stands for enzyme-linked immunosorbent assay.
Assay [3] concerns the target 2F5 antibody. In words: ELISA on coated 2F5; Fc variant 0.01371742 ug/ml.
The target of assay [4] is 2F5 antibody. Kind of assay: ELISA on coated 2F5; Fc variant 0.04115226 ug/ml.
Assay [5] concerns the target 2F5 antibody. In words: ELISA on coated 2F5; Fc variant 0.12345679 ug/ml.
Assay [6] concerns the target 2F5 antibody. Kind of assay: ELISA on coated 2F5; Fc variant 0.37037037 ug/ml.
The target of assay [7] is 2F5 antibody. In words: ELISA on coated 2F5; Fc variant 1.11111111 ug/ml.
The target of assay [8] is 2F5 antibody. In words: ELISA on coated 2F5; Fc variant 3.33333333 ug/ml.

The text below walks through data of patent US20200277399A1.

“Fc_ELDKWA_FG (from UniProt P0DOX5 227-449)”: the absorbance with 2F5 antibody [1] was 1.4; with 2F5 antibody [2] it was 0.012; with 2F5 antibody [3], 0.0215; with 2F5 antibody [4], 0.0365; in the assay with 2F5 antibody [5], 0.108; in the assay with 2F5 antibody [6], 0.297. For the same substance, the absorbance in the assay with 2F5 antibody [7] was 0.706; with 2F5 antibody [8], 1.32.
For “Fc_ELDKWA_BC (from UniProt P0DOX5 227-449)”, the absorbance with 2F5 antibody [1] was found to be 0.619; with 2F5 antibody [2], 0.0133; with 2F5 antibody [3] it was 0.0107; with 2F5 antibody [4], 0.0197; with 2F5 antibody [5], 0.0213; in the assay with 2F5 antibody [6], 0.047. Also, the absorbance came to 0.091 in the assay with 2F5 antibody [7] and 0.232 in the assay with 2F5 antibody [8].
Turning to “Fc_ELDKWA_DE (from UniProt P0DOX5 227-449)”, the absorbance with 2F5 antibody [1] is 1.25; with 2F5 antibody [2] it was 0.0177; with 2F5 antibody [3], 0.0283; in the assay with 2F5 antibody [4] it was 0.038; with 2F5 antibody [5], 0.0673; with 2F5 antibody [6], 0.185. Also, the figures for the absorbance in the assay with 2F5 antibody [7] and with 2F5 antibody [8] were 0.495 and 0.846, respectively.
